Consider five molecules from US7696168 (TUFTS MEDICAL CENTER, dated 2010).

Numbering of substitutions follows the chain as printed. The star is where a group is joined. Palmitoyl = CCCCCCCCCCCCCCCC(=O)*

The target of one data set is PAR1 delta377 mutant (UniProt P25116).
In data set [1] the target is T1, human PAR1 (human, UniProt P25116 42-425).
T1 sequence (looked up): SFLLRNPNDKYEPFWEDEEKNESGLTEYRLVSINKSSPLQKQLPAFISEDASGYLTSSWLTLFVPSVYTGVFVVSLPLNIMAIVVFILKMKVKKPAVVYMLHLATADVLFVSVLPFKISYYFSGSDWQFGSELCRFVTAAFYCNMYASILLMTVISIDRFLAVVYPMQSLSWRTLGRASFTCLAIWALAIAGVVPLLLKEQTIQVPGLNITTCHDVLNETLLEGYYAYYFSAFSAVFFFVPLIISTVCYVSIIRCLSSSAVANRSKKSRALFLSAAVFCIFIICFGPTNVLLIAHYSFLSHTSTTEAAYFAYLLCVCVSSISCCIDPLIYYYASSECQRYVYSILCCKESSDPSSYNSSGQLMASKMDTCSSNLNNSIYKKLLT
Briefly: cell-based or functional assay.

The target in data set [2] is T1, human PAR1. Briefly: cell-based or functional assay. The source holds these as a separate data set.
A further data set deals with T2, PAR1 S309P mutant (human, UniProt P25116 42-425).
T2 sequence (looked up): T1 sequence (looked up) with S268P
Nature of the data set: cell-based or functional assay.

Data set [3] deals with human glucagon-like peptide-1 receptor (GLP-1R) (human, UniProt P43220 24-463). Nature of the data set: cell-based or functional assay.
In the next data set the target is T3, human PAR2 (human, UniProt P55085 37-397).
T3 sequence (looked up): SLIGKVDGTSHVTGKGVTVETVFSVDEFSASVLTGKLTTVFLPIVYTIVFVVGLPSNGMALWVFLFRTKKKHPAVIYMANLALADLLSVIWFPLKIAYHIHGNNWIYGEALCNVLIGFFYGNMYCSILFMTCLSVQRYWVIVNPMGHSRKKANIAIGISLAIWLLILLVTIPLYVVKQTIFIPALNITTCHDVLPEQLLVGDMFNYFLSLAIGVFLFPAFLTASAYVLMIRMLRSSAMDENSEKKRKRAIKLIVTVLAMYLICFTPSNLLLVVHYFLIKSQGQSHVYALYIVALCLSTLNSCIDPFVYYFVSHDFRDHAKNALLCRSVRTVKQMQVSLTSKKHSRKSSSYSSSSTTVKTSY
Nature of the data set: cell-based or functional assay.

For data set [4], the target named is T4, human cholecystokinin B receptor (CCKB) (human, UniProt P32239 1-447).
T4 sequence (looked up): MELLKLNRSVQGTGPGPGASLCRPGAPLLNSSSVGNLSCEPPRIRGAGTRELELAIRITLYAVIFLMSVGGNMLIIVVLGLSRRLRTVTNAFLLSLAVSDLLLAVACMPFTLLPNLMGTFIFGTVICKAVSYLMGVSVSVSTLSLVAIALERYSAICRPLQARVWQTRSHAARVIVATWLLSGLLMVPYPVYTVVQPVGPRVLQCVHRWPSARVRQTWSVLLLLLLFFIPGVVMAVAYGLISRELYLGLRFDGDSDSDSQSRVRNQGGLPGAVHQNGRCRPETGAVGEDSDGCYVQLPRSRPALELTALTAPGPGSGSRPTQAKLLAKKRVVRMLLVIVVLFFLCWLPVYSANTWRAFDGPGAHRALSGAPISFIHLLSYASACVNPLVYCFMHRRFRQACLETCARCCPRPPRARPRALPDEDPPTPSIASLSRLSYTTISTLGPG
Nature of the data set: cell-based or functional assay.

In data set [5] the target is T4, human cholecystokinin B receptor (CCKB). Briefly: cell-based or functional assay. The source holds these as a separate data set.

Consider thrombin, for which the “reduction of efficacy against wild type PAR1 (PLC-beta, InsP)” value with PAR1 delta377 mutant is “Efficacy is reduced by 2-3 fold for the two PAR1 agonists”.

B1: P1pal-19 (Pal-RCLSSSAVANRSKKSRALF) (peptide)
peptide: Palmitoyl-RCLSSSAVANRSKKSRALF-NH2
SMILES: CCCCCCCCCCCCCCCC(=O)N[C@@H](CCCNC(=N)N)C(=O)N[C@@H](CS)C(=O)N[C@@H](CC(C)C)C(=O)N[C@@H](CO)C(=O)N[C@@H](CO)C(=O)N[C@@H](CO)C(=O)N[C@@H](C)C(=O)N[C@H](C(=O)N[C@@H](C)C(=O)N[C@@H](CC(N)=O)C(=O)N[C@@H](CCCNC(=N)N)C(=O)N[C@@H](CO)C(=O)N[C@@H](CCCCN)C(=O)N[C@@H](CCCCN)C(=O)N[C@@H](CO)C(=O)N[C@@H](CCCNC(=N)N)C(=O)N[C@@H](C)C(=O)N[C@@H](CC(C)C)C(=O)N[C@@H](Cc1ccccc1)C(N)=O)C(C)C
For B1, in the data set with human PAR1 [1], the “Agonist EC50 (activating phase, InsP formation)” value was determined as 180 nM; the “Agonist Efficacy (% of full response to extracellular agonist)” value amounted to 90%; the “Agonist IC50 (inhibitory phase, InsP formation)” value came out at 6500 nM. Also, the “platelet aggregation EC50” value with human PAR1 [2] was 8000 nM. Further, in the data set with PAR1 S309P mutant, the “loss in efficacy against wild type PAR1 (InsP)” value is 4.3 fold and the “loss in potency against wild type PAR1 (InsP)” value was determined as 13 fold.

B2: G1pal-15 pepducin (peptide)
peptide: Palmitoyl-ANLMSKTDIKCRLAF-NH2
SMILES: CCCCCCCCCCCCCCCC(=O)N[C@@H](C)C(=O)N[C@@H](CC(N)=O)C(=O)N[C@@H](CC(C)C)C(=O)N[C@@H](CCSC)C(=O)N[C@@H](CO)C(=O)N[C@@H](CCCCN)C(=O)N[C@H](C(=O)N[C@@H](CC(=O)O)C(=O)N[C@H](C(=O)N[C@@H](CCCCN)C(=O)N[C@@H](CS)C(=O)N[C@@H](CCCNC(=N)N)C(=O)N[C@@H](CC(C)C)C(=O)N[C@@H](C)C(=O)N[C@@H](Cc1ccccc1)C(N)=O)[C@@H](C)CC)[C@@H](C)O
Consider B2, for which the “cAMP in Cos7 fibroblasts, fold activation at 1 µM pepducin” value in data set [3] came out at 1.7 fold.
For SLIGKV, in the data set with human PAR2, the “InsP formation, fold-stimulation by 100 micromolar SLIGKV (P2pal-21 experiment)” value is 3.1 fold.

B3: Bpal-18F (Pal-SGSRPTQAKLLAKKRVVF) (peptide)
peptide: Palmitoyl-SGSRPTQAKLLAKKRVVF-NH2
SMILES: CCCCCCCCCCCCCCCC(=O)N[C@@H](CO)C(=O)NCC(=O)N[C@@H](CO)C(=O)N[C@@H](CCCNC(=N)N)C(=O)N1CCC[C@H]1C(=O)N[C@H](C(=O)N[C@@H](CCC(N)=O)C(=O)N[C@@H](C)C(=O)N[C@@H](CCCCN)C(=O)N[C@@H](CC(C)C)C(=O)N[C@@H](CC(C)C)C(=O)N[C@@H](C)C(=O)N[C@@H](CCCCN)C(=O)N[C@@H](CCCCN)C(=O)N[C@@H](CCCNC(=N)N)C(=O)N[C@H](C(=O)N[C@H](C(=O)N[C@@H](Cc1ccccc1)C(N)=O)C(C)C)C(C)C)[C@@H](C)O
For B3, in data set [4], the “Agonist EC50 (activating phase, InsP formation)” value is 100 nM; the “Agonist Efficacy (% of full response to 300 nM CCK-8)” value worked out at 13%; the “Agonist IC50 (inhibitory phase, InsP formation)” value is 1000 nM. The “improvement of potency against the wild-type CCKB peptide” value in data set [5] is 15 fold.
